Assay results taken from patent publication US20240229045, “APTAMER FOR SPECIFICALLY RECOGNIZING SOLUBLE ST2 PROTEIN AND APPLICATION OF THE SAME” (BEIJING INSTITUTE OF HEART, LUNG AND BLOOD VESSEL DISEASES, published 2024).

Key:
[1] = target: T1, soluble ST2 (sST2, IL1RL1 soluble isoform) (Homo sapiens, UniProt Q01638-2 Q01638-2:19-328); experiment: EMSA; strong binding; room temperature 30 min
Protocol: According to the experimental formula shown in Table 4, the aptamer was added to the buffer solution and nuclease-free water, heated at 95° C. for 10 minutes, quenched on ice for 10 minutes, and room temperature for 10 minutes.
The above DNA solution and sST2 protein were slowly mixed to a final volume of 20 μL, and a sample containing only aptamer and no protein was used as a negative control, and incubated with rotation at room temperature for 30 minutes.

[2] = target: T1, soluble ST2 (sST2, IL1RL1 soluble …); experiment: fiber-optic fluorescence, sST2 immobilised; 137 mM NaCl, 2.7 mM KCl, phosphate

T1 sequence (Q01638 other isoform, or with tags, fused parts or gaps): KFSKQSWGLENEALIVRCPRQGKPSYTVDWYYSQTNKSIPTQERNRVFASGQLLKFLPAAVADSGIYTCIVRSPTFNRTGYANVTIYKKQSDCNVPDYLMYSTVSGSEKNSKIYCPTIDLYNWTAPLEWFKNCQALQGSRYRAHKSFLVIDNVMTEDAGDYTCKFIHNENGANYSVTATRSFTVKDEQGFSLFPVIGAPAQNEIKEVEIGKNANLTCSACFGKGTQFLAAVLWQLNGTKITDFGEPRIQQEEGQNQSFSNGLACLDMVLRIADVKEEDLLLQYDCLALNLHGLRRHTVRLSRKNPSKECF

Binder | binding result [1] | Kd [2] [nM]
TCCATCCACTCGGGGCTAGAAGCCGTGAGAATCTG (ssDNA) [Apt1] | binds | –
TCCATCCACTCGGGGCGGGGGCTCGTGCTCTATTTC (ssDNA) [Apt4] | – | 127
TCCATCCACTCGGCCTACTAAGGGTTTCGTTCACC (ssDNA) [Apt3] | binds | –
TCCATCCACTCGGGCCCTAGGGCGTGTATGTCCAT (ssDNA) [Apt2] | binds | –
TCCATCCACTCGGCGCCACGCGGTTTCTCCAGATT (ssDNA) [Apt8] | binds | –
